Non-standard residues stand in square brackets, D forms with d. No end group written: not given here. pT = C[C@@H](OP(=O)(O)O)[C@H](N)C(=O)O; pS = N[C@@H](COP(=O)(O)O)C(=O)O
Experiments:
[1] = molecular target: T1, HLA-B*0702 (HLA-B7) peptide complexes (Homo sapiens, UniProt P01889); experiment: HLA-B*0702 phosphopeptides associated with leukemia samples (isolation of HLA-associated peptides); conditions: for Copies/cell class, HCL1: hairy cell leukemia sample HCL1; for Copies/cell class, B Cell: healthy B cells; for Copies/cell class, T Cell: healthy T cells; for Copies/cell class, ALL1: acute lymphoblastic leukemia sample ALL1
T1 construct: endogenous in cells; host or cells: JY B-lymphoblastoid line; primary ALL, CLL, HCL, AML samples; bone marrow; healthy B and T cells
From the text: To identify naturally processed tumor-associated phosphopeptides, HLA-A*0201 (HLA-A2) and HLA-B*0702 (HLA-B7) peptide complexes from four (4) chronic lymphocytic leukemia (CLL) tumor samples, a mantle cell lymphoma sample (MCL), one acute lymphoblastic leukemia (ALL), and an acute myeloid leukemia (AML) sample, in addition to healthy splenic T and B-cells and the cultured lymphoblastoid cell line JY were isolated. These efforts yielded 10 HLA-A2-restricted and 86 HLA-B7-restricted phosphopeptide antigens (see Tables 6 and 7).
All cell lines were grown at 37° C. with 5% CO2 in growth medium consisting of RPMI 1640 supplemented with 10% FCS and two mM L-glutamine. Blood or leukapheresis samples were taken from patients with high-burden leukemia in heparin. Tumor cells were recovered by layering the blood over density gradient (Ficoll) and collecting the tumor layer following centrifugation. The tumor was washed in tris-buffered saline (TBS). The purity of the tumor was assessed using flow cytometry and was >98% pure in all cases. For healthy T and B-cell populations, a normal spleen sample processed and tonsil sample was collected and lymphocytes released through mechanical disruption. Mononuclear cells were isolated using a density gradient and 10^9 T cells isolated using anti-CD19 or anti-CD3 microbeads (Miltenyi Biotec Inc., Auburn, California, United States of America) with purity >98% were obtained. Bone marrow sample was obtained from an elective orthopedic procedure and red cell-depleted using hypotonic lysis. This sample was not processed further.
Class I MHC molecules were immunoaffinity purified from the JY cell line or from primary tumor samples, and their associated peptides were extracted as previously described in Zarling et al., 2006. Approximately 1.2-14×10^9 cells were lysed in a solution containing 20 mM Tris-HCl (pH 8.0), 150 mM NaCl, 1% CHAPS, one mM PMSF, five μg/mL aprotinin, 10 μg/mL leupeptin, 10 μg/mL pepstatin A, 1 μg/ml calyculin A, and phosphatase inhibitor (cocktails I and II; Sigma-Aldrich). The mixture was subjected to centrifugation and the resulting supernatant was passed over protein A sepharose pre-loaded with the HLA-A2-specific antibody BB7.2 or HLA-B7-specific antibody MEL Peptides were eluted from the purified class I MHC molecules with 10% acetic acid.

HLA-B*0702 = molecular target: T2, HLA-B*0702 (Homo sapiens, UniProt P01889); experiment: Phosphopeptides presented in association with class I molecules (HLA-B*0702) on cancer cells: melanoma and/or leukemia; set-up: key: Melanoma (M); Leukemia (L); L/M: Melanoma (M) and/or Leukemia (L); conditions: cancer type on which the HLA-B*0702 phosphopeptide is presented
T2 construct: endogenous in cells; host or cells: melanoma and/or leukemia cells

Substance | Copies/cell class, CLL4 [1] | Copies/cell class, HCL1 [1] | Copies/cell class, B Cell [1] | Copies/cell class, T Cell [1] | L/M (HLA-B*0702) | Copies/cell class, AML1 [1] | Copies/cell class, CLL2 [1] | Copies/cell class, JY [1] | Copies/cell class, ALL1 [1] | Copies/cell class, BM ([1]; healthy bone marrow)
314 (RPH[pS]PEKAF; listed as Homo sapiens) [compound 314] | – | 1 (1 indicates <1 copy/cell) | – | – | L | 1 (1 indicates <1 copy/cell) | 1 (1 indicates <1 copy/cell) | 3 (3 indicates 6-25 copies per cell) | 1 (1 indicates <1 copy/cell) | –
315 (RPI[pT]PPRNSA; listed as Homo sapiens) [compound 315] | – | – | – | – | L | – | – | – | 1 (1 indicates <1 copy/cell) | –
320 (RPPPPPD[pT]PP; listed as Homo sapiens) [compound 320] | – | – | – | – | L | – | – | – | 1 (1 indicates <1 copy/cell) | –
327 (RPRPH[pS]APSL; listed as Homo sapiens) [compound 327] | – | – | – | – | L | 2 (2 indicates 1-5 copies/cell) | – | – | – | –
331 (RPR[pS]LEVTI; listed as Homo sapiens) [compound 331] | – | – | – | – | L | 1 (1 indicates <1 copy/cell) | – | – | – | –
334 (RPR[pS]PGSNSKV; listed as Homo sapiens) [compound 334] | – | – | – | – | L | 1 (1 indicates <1 copy/cell) | – | – | – | –
336 (RPR[pS]PRQNSI; listed as Homo sapiens) [compound 336] | – | – | – | – | L | 2 (2 indicates 1-5 copies/cell) | – | – | – | –
339 (RPR[pS]PTGP[pS]NSF; listed as Homo sapiens) [compound 339] | – | – | – | – | L | 2 (2 indicates 1-5 copies/cell) | – | – | – | –
342 (RPSRS[pS]PGL; listed as Homo sapiens) [compound 342] | – | – | – | – | L | 2 (2 indicates 1-5 copies/cell) | – | – | – | –
343 (RPS[pS]LPDL; listed as Homo sapiens) [compound 343] | – | 1 (1 indicates <1 copy/cell) | 3 (3 indicates 6-25 copies per cell) | 4 (4 indicates >25 copies per cell) | L | 2 (2 indicates 1-5 copies/cell) | 2 (2 indicates 1-5 copies/cell) | 3 (3 indicates 6-25 copies per cell) | 4 (4 indicates >25 copies per cell) | –
344 (RP[pS]SPALYF; listed as Homo sapiens) [compound 344] | 1 (1 indicates <1 copy/cell) | 1 (1 indicates <1 copy/cell) | – | – | L | 1 (1 indicates <1 copy/cell) | 1 (1 indicates <1 copy/cell) | – | 1 (1 indicates <1 copy/cell) | –
346 (RPT[pS]RLNRL; listed as Homo sapiens) [compound 346] | 2 (2 indicates 1-5 copies/cell) | 2 (2 indicates 1-5 copies/cell) | 2 (2 indicates 1-5 copies/cell) | – | L | 2 (2 indicates 1-5 copies/cell) | 2 (2 indicates 1-5 copies/cell) | 4 (4 indicates >25 copies per cell) | 2 (2 indicates 1-5 copies/cell) | –
348 (RPV[pS]PGKDI; listed as Homo sapiens) [compound 348] | – | – | – | – | L | – | – | – | 1 (1 indicates <1 copy/cell) | –

The next lines start with the values.

Copies/cell class, CLL4 [1] | Copies/cell class, HCL1 [1] | Copies/cell class, B Cell [1] | Copies/cell class, T Cell [1] | L/M (HLA-B*0702) | Copies/cell class, AML1 [1] | Copies/cell class, CLL2 [1] | Copies/cell class, JY [1] | Copies/cell class, ALL1 [1] | Copies/cell class, BM ([1]; healthy bone marrow) | Substance
4 (4 indicates >25 copies per cell) | 4 (4 indicates >25 copies per cell) | 4 (4 indicates >25 copies per cell) | 4 (4 indicates >25 copies per cell) | L | – | – | – | – | – | 313 (RPF[pS]PREAL; listed as Homo sapiens) [compound 313]
– | – | – | – | L | 1 (1 indicates <1 copy/cell) | – | – | – | – | 317 (RPKLS[pS]PAL; listed as Homo sapiens) [compound 317]
– | – | – | – | L | – | 1 (1 indicates <1 copy/cell) | – | 2 (2 indicates 1-5 copies/cell) | 1 (1 indicates <1 copy/cell) | 318 (RPKPSS[pS]PV; listed as Homo sapiens) [compound 318]
2 (2 indicates 1-5 copies/cell) | 1 (1 indicates <1 copy/cell) | 1 (1 indicates <1 copy/cell) | 1 (1 indicates <1 copy/cell) | L | – | 3 (3 indicates 6-25 copies per cell) | 4 (4 indicates >25 copies per cell) | 1 (1 indicates <1 copy/cell) | – | 319 (RPN[pS]PSPTAL; listed as Homo sapiens) [compound 319]
1 (1 indicates <1 copy/cell) | 1 (1 indicates <1 copy/cell) | – | 2 (2 indicates 1-5 copies/cell) | L | – | 1 (1 indicates <1 copy/cell) | 4 (4 indicates >25 copies per cell) | 2 (2 indicates 1-5 copies/cell) | – | 321 (RPP[pS]PGPVL; listed as Homo sapiens) [compound 321]
– | 1 (1 indicates <1 copy/cell) | 2 (2 indicates 1-5 copies/cell) | 2 (2 indicates 1-5 copies/cell) | L | – | 1 (1 indicates <1 copy/cell) | – | 3 (3 indicates 6-25 copies per cell) | – | 322 (RPP[pS]SEFLDL; listed as Homo sapiens) [compound 322]
4 (4 indicates >25 copies per cell) | 4 (4 indicates >25 copies per cell) | 2 (2 indicates 1-5 copies/cell) | 4 (4 indicates >25 copies per cell) | L | 2 (2 indicates 1-5 copies/cell) | 4 (4 indicates >25 copies per cell) | 4 (4 indicates >25 copies per cell) | 4 (4 indicates >25 copies per cell) | – | 323 (RPQRA[pT]SNVF; listed as Homo sapiens) [compound 323]
– | – | 2 (2 indicates 1-5 copies/cell) | 3 (3 indicates 6-25 copies per cell) | L | 2 (2 indicates 1-5 copies/cell) | – | – | – | – | 324 (RPQRAT[pS]NVF; listed as Homo sapiens) [compound 324]
– | – | – | – | L | 2 (2 indicates 1-5 copies/cell) | – | – | – | – | 325 (RPRAN[pS]GGVDL; listed as Homo sapiens) [compound 325]
– | – | – | – | L | 1 (1 indicates <1 copy/cell) | – | – | – | – | 328 (RPRPV[pS]PSSL; listed as Homo sapiens) [compound 328]
– | – | – | – | L | 2 (2 indicates 1-5 copies/cell) | – | – | – | – | 330 (RPR[pS]AVLL; listed as Homo sapiens) [compound 330]
– | – | – | – | L | 1 (1 indicates <1 copy/cell) | – | – | – | – | 333 (RPR[pS]PAARL; listed as Homo sapiens) [compound 333]
– | – | – | – | L | 2 (2 indicates 1-5 copies/cell) | – | – | – | – | 337 (RPR[pS]PSPIS; listed as Homo sapiens) [compound 337]
– | – | – | – | L | 4 (4 indicates >25 copies per cell) | – | – | – | – | 338 (RPR[pS]PTGP; listed as Homo sapiens) [compound 338]
2 (2 indicates 1-5 copies/cell) | 3 (3 indicates 6-25 copies per cell) | 3 (3 indicates 6-25 copies per cell) | 3 (3 indicates 6-25 copies per cell) | L | 2 (2 indicates 1-5 copies/cell) | 2 (2 indicates 1-5 copies/cell) | 4 (4 indicates >25 copies per cell) | 3 (3 indicates 6-25 copies per cell) | – | 347 (RPV[pS]PFQEL; listed as Homo sapiens) [compound 347]
